From patent US20130079286A1 (Pieris, published 2013) come the findings set out here.

Assay [1] has as its target T1, recombinant human fibronectin fragment FN7B8 (human, UniProt P02751 1173-1448).
T1 construct: no separate number is printed for the protein, so the entry may be a nucleic acid
The experiment in a line: SPR (BIAcore X), FN7B8 amine-coupled (about 500 RU), mutein as analyte. From the text:
FIG. 13 depicts the kinetic real time analysis of Lcn2 mutein N9B measured on a Biacore instrument. FN7B8 was coupled via amine chemistry to a CMD 200 m sensor chip (ΔRU=500) and the purified Lcn2 mutein was applied at varying concentrations. The measured signal is shown as a grey line whereas the curve fit is depicted as a black line in each case.
FIG. 14 depicts the kinetic real time analysis of Lcn2 mutein N7E measured on a Biacore instrument. FN7B8 was coupled via amine chemistry to a CMD 200 m sensor chip (ΔRU=500) and the purified Lcn2 mutein was applied at varying concentrations. The measured signal is shown as a grey line whereas the curve fit is depicted as a black line in each case.
Real time analysis of Lcn2 muteins was performed on a BIAcore X system (BIAcore, Uppsala, Sweden) using HBS/ET (20 mM Hepes, pH 7.5, 150 mM NaCl, 1 mM EDTA containing 0.005% (v/v) Tween 20) as running buffer. 200 μg/ml solution of recombinant FN7B8 in 10 mM Na-acetate, pH 4.0 was immobilized on a CMD 200 m Sensorchip (XanTec bioanalytics, Duesseldorf, Germany) using standard amine coupling chemistry (Biacore, Uppsala, Sweden), resulting in a ligand density of about 500 resonance units (RU). The purified Lcn2 mutein was applied at a flow rate of 25 μl/min at concentrations of 2.5 up to 160 nM. The sensorgrams were corrected by subtraction of the corresponding signals measured for the control channel, which had been activated and blocked with ethanolamine.
(In general: Surface plasmon resonance follows binding to a sensor surface in real time, without labels.)

Assay [2] addresses T2, recombinant fibronectin single domain ED-B (human).
T2 construct: the entry may be a nucleic acid; also called extra domain-B; extra-domain B
The experiment in a line: SPR (BIAcore X), ED-B amine-coupled (about 180 RU), mutein as analyte. The method, then: (§1) FIG. 27 depicts the kinetic real time analysis of Lcn2 variants N7A (A), N7E (B), N9B (C) and N10D (D) measured on a Biacore X instrument. The single fibronectin domain ED-B was coupled via amine chemistry to a CMD 200 m sensor chip (ΔRU=180) and the purified Lcn2 variants were applied at varying concentrations. The measured signals are shown as traces together with the curve fits.
(§2) Real time interaction analysis of Lcn2 muteins was performed on a BIAcore X instrument using HBS/ET (20 mM Hepes, pH 7.5, 150 mM NaCl, 1 mM EDTA containing 0.005% (v/v) Tween 20) as running buffer. 100 μg/ml solution of recombinant ED-B in 10 mM Na-acetate, pH 4.0 was immobilized on a CMD 200 m Sensorchip using standard amine coupling chemistry, resulting in a ligand density of about 180 resonance units (RU). The purified Lcn2 mutein was applied at a flow rate of 25 μl/min at concentrations of 2.5 up to 160 nM. The sensorgrams were corrected by subtraction of the corresponding signals measured for the control channel, which had been activated and blocked with ethanolamine. […] In the case of N10D the heterogeneous analyte competing reaction model was used for data fitting, resulting in two sets of kinetic constants.

Assay [3] concerns the target T3, recombinant human fibronectin fragment FN789 (human, UniProt P02751 1173-1539).
T3 construct: the entry may be a nucleic acid
Put plainly: ELISA on coated protein.

For assay [4], the target named is T4, BSA (bovine, UniProt P02769 25-607).
T4 construct: also called bovine serum albumin
Put plainly: ELISA on coated protein. In general terms: An ELISA detects its analyte on a solid surface through an enzyme-linked reagent.

For assay [5], the target named is T2, recombinant fibronectin single domain …. Put plainly: SPR (BIAcore X), ED-B immobilised by amine coupling, Lcn2 mutein injected at 0 to 160 nM, 1:1 model. The method, then: as §1, §2
Assay [6] addresses T1, recombinant human fibronectin fragment …. The experiment in a line: ELISA: FN7B8 coated, mutein titrated, detected via Strep-tag II.
Assay [7] addresses T2, recombinant fibronectin single domain …. Put plainly: SPR (BIAcore X), ED-B amine-coupled; heterogeneous analyte competing reaction model, second set. Here is the method:
as §2

For assay [8] the target is unchanged. The experiment in a line: SPR (BIAcore X), ED-B amine-coupled; heterogeneous analyte competing reaction model, first set. The method, then: as §2
Assay [9] has as its target T5, Trx-Aβ28 fusion protein (Escherichia coli (strain K12), UniProt P0AA25 1-76 = thioredoxin, Biotin-labelled through an NHS ester (2:1) in the capture and competitive ELISAs; unlabeled in the direct ELISA and as competitor.).
T5 construct: the entry may be a nucleic acid; also called TrxAbeta28H6
Put plainly: direct ELISA: Trx-Aβ28 coated, mutein titrated, detected via Strep-tag II. Here is the method: The Aβ targets Trx-Aβ28 and MBP-Aβ40 as well as the control protein maltose binding protein (MBP) were immobilized at 2 μM in PBS over night. Bound Lcn2 muteins were detected via their Strep-tag II using Streptavidin/AP followed by a chromogenic reaction with pNPP. As a control, the binding of wild-type (wt) lipocalin was tested. The data were fitted to a monovalent binding model.
Alternatively, for a “direct” ELISA, 2 μM unlabeled Aβ40 target from Example 2 was adsorbed onto a 96-well MaxiSorp polystyrene microliter plate (Nunc, Langenselbold, Germany) and incubated with the purified Lcn2 mutein, which was detected via the Strep-tag II using a 1:1500 dilution of Streptavidin/AP conjugate (GE Healthcare UK Ltd, Buckinghamshire, UK). As a control, 2 μM MBP from Example 2 was adsorbed onto the ELISA plate. Absorption at 405 nm was measured in a SpectraMax 250 reader (Molecular Devices, Sunnyvale, USA).

The target of assay [10] is T5, Trx-Aβ28 fusion protein. Put plainly: capture ELISA: mutein captured via Strep-tag II, biotinylated Trx-Aβ28 titrated. Here is the method:
(§3) FIG. 19 depicts the binding activity of the Lcn2 muteins H1GA, H1GV, and H1-G1 in capture ELISAs with the biotinylated Aβ targets Aβ40 (A) and Trx-Aβ28 (B). StrepMAB-Immo was immobilized at 10 μg/ml on microtitre plates and employed for capturing of 1 μM Lcn2 muteins via the Strep-tag H. Binding of the biotinylated targets, applied in a dilution series, was then detected by incubation with ExtrAvidin/AP and a subsequent chromogenic reaction with pNPP. […] The data were fitted to a monovalent binding model.

Assay [11] deals with T6, ovalbumin (UniProt P01012 2-386).
T6 sequence (looked up): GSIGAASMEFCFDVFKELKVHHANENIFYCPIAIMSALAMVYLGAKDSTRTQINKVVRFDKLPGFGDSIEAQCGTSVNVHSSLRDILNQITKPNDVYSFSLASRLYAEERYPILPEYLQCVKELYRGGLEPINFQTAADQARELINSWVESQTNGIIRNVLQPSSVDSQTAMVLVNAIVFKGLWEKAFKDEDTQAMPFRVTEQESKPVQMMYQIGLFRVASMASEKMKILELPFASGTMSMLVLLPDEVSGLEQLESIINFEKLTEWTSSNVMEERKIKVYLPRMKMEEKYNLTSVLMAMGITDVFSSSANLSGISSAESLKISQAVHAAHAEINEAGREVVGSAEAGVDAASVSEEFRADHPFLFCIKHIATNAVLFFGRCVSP
The experiment in a line: capture ELISA: 1 µM Lcn2 protein captured via Strep-tag II on coated StrepMAB-Immo, biotinylated target titrated, ExtrAvidin/AP + pNPP. The method, then:
(§4) FIG. 5 depicts the binding activity of the Lcn2 muteins H1-G1, S1-A4, and US7 in capture ELISAs with different biotinylated Aβ targets. StrepMAB-Immo at 10 μg/ml was immobilized on microtitre plates and employed for capturing of 1 JAM Lcn2 muteins via the Strep-tag H. In figures A to C the binding of the Lcn2 muteins S1-A4 and US7 to (A) biotinylated Aβ40, (B) biotinylated Trx-Aβ28, and (C) biotinylated MBP-Aβ40 are shown. Binding was detected by incubation with ExtrAvidin/AP and a subsequent chromogenic reaction with pNPP. Ovalbumin (Ova), thioredoxin (Trx), and maltose binding protein (MBP) were used as negative controls. Additionally, binding of wild-type (wt) lipocalin was tested. The data were fitted to a monovalent binding model.
(§5) For selective capturing of the Lcn2 muteins carrying the C-terminal Strep-tag II (Schmidt and Skerra (2007) Nat. Protoc. 2, 1528-1535), a 96-well MaxiSorp polystyrene microtitre plate (Nunc, Langenselbold, Germany) was coated with 10 μg/mL StrepMAB-Immo (IBA, Göttingen, Germany) in PBS over night at 4° C. and blocked with 3% (w/v) BSA in PBS/T at room temperature for 1 h. After 3 washing steps with PBS/T, 50 μL of a 1 μM solution of the purified Lcn2 muteins from Example 7 were applied to all wells for 1 h. After washing, 50 μL of a dilution series of the biotinylated targets Aβ40, MBP-Aβ40 or Trx-Aβ28 from Example 2 were added and incubated for 1 h whereby the biotinylated forms of Ova, MBP and Trx from Example 2 served as negative control proteins. The wells were washed again and bound conjugate was detected with 50 μL of ExtrAvidin/AP conjugate (Sigma-Aldrich, Steinheim, Germany) diluted 1:5000 in PBS/T for 1 h, followed by signal development in the presence of 100 μL 0.5 mg/mL p-nitrophenyl phosphate (AppliChem, Darmstadt, Germany) in 100 mM Tris/HCl, pH 8.8, 100 mM NaCl, 5 mM MgCl₂.

Assay [12] has as its target T7, biotinylated Aβ40 peptide (human, C-terminal biotin group attached via a lysine spacer).
T7 construct: Synthetic peptide (Peptide Speciality Laboratory) with a C-terminal biotin on a lysine spacer; used in the capture ELISAs
The experiment in a line: capture ELISA: mutein captured via Strep-tag II, biotinylated Aβ40 titrated. Here is the method: as §3

Assay [13] deals with T7, biotinylated Aβ40 peptide. Put plainly: capture ELISA: mutein captured via Strep-tag II on StrepMAB-Immo, biotinylated Aβ40 titrated. The method, then:
as §4, §5

The target in assay [14] is T5, Trx-Aβ28 fusion protein. The experiment in a line: capture ELISA: mutein captured, biotinylated Trx-Aβ28 titrated. The method, then: as §4, §5

T2 sequence (chain, as listed by the source limits assumed): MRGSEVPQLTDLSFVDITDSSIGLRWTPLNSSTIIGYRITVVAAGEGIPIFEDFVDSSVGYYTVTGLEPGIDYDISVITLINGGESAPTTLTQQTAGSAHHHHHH
T1 sequence (P02751 other isoform, or with tags, fused parts or gaps limits assumed): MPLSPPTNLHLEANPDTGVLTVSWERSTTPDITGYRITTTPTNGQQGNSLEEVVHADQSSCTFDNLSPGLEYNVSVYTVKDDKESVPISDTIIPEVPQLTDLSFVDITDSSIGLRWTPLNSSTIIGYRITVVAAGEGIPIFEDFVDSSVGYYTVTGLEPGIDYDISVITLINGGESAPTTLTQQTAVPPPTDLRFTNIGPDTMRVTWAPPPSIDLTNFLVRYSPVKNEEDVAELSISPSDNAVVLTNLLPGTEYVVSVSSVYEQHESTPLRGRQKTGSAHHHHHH
T3 sequence (P02751 other isoform, or with tags, fused parts or gaps limits assumed): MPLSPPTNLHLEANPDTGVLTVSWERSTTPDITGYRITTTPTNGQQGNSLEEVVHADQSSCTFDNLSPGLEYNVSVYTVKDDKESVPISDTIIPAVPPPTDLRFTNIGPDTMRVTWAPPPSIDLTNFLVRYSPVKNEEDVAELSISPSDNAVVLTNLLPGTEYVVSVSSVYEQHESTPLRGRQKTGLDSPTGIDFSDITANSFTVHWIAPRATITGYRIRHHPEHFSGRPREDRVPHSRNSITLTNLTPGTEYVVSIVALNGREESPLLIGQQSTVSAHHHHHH
T4 sequence (P02769 25-607 limits assumed): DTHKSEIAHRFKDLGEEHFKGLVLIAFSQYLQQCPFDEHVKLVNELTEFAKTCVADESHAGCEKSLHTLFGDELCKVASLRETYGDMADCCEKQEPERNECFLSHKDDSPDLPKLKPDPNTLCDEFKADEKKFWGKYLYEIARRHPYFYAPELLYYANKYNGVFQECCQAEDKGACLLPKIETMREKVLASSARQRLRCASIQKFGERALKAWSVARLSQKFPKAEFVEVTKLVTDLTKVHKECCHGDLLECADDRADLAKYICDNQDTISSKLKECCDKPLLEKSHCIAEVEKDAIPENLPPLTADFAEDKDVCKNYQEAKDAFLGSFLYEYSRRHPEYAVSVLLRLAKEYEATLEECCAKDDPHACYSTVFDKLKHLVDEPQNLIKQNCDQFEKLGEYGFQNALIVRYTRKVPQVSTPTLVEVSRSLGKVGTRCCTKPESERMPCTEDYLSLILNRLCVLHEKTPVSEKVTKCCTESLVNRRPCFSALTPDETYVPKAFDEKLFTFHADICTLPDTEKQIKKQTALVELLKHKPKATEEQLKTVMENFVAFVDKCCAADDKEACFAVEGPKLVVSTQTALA
T7 sequence (peptide, as listed by the source): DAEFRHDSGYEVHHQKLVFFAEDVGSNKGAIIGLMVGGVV

B1: Lcn2 mutein N7A (designed binder)
chain: QDSTSDLIPAPPLSKVPLQQNFQDNQFHGKWYVVGKAGNHDLREDKDPRKMQATIYELKEDKSYNVTNVRFVHKKCNYRIWTFVPGSQPGEFTLGNIKSWPGLTSWLVRVVSTNYNQHAMVFFKRVYQNRELFEITLYGRTKELTNELKENFIRFSKSLGLPENHIVFPVPIDQCIDG
The term Kd denotes the equilibrium constant for the complex coming apart. One may read the koff as the rate constant with which the complex falls apart. By kon is commonly meant the second-order rate constant of association. Consider B1, for which the Kd in [1] was 5.8 nM; in assay [2], 127 nM; in assay [5] it was 120 nM; in [6], 14.8 nM. The koff in assay [1] was 0.026 s⁻¹; in assay [2] it was 0.138 s⁻¹. Also, the kon is 4.6e+06 M⁻¹ s⁻¹ in [1] and 1.8e+06 M⁻¹ s⁻¹ in assay [2]. In addition, the binding result in [3] and in assay [4] was “no binding” each time.

B2: Lcn2 mutein N7E (designed binder)
chain: QDSTSDLIPAPPLSKVPLQQNFQDNQFHGKWYVVGEAGNSLLREDKDPRKMYATIYELKEDKSYNVTSVRFRSKKCHYLIRTFVPGSQPGEFTLGLIKSKPGHTSFLVRVVSTNYNQHAMVFFKTVAQNREYFFITLYGRTKELTSELKENFIRFSKSLGLPENHIVFPVPIDQCIDG
For the molecule B2, the Kd in [1] was 7.2 nM; in [2] it was 17.3 nM; in assay [5], 17 nM; in assay [6], 30 nM. The koff amounted to 0.03 s⁻¹ in assay [1] and 0.054 s⁻¹ in assay [2]. Moreover, the kon in [1] came to 4.1e+06 M⁻¹ s⁻¹; in [2], 3.1e+06 M⁻¹ s⁻¹.

B3: Lcn2 mutein N10D (designed binder)
chain: QDSTSDLIPAPPLSKVPLQQNFQDNQFHGKWYVVGAAGNTWLREDKDPYKMQATIYELKEDKSYNVTNVLFMSKKCRYMIHTFVPGSQPGEFTLGSIKSWPGLTSWLVRVVSTNYNQHAMVFFKRVYQNREFFGITLYGRTKELTSELKENFIRFSKSLGLPENHIVFPVPIDQCIDG
notes: also called NIOD; NI OD
B3: the Kd in assay [1] amounted to 38 nM; in assay [6] it was 51.2 nM. Moreover, the koff in assay [1] worked out at 0.058 s⁻¹; in assay [7], 0.00335 s⁻¹; in assay [8], 0.064 s⁻¹. Besides, the kon came out at 1.5e+06 M⁻¹ s⁻¹ in assay [1], 29400 M⁻¹ s⁻¹ in [7] and 621000 M⁻¹ s⁻¹ in assay [8]. Moreover, the binding result in assay [3] and in [4] was “no binding” in each case.

B4: Lcn2 mutein H1-G1 (designed binder)
chain: QDSTSDLIPAPPLSKVPLQQNFQDNQFHGKWYVVGCAGNVLLREDKDPLKMYATIYELKEDKSYNVTSVGFDDKKCLYKIRTFVPGSQPGEFTLGRIKSEPGGTSWLVRVVSTNYNQHAMVFFKEVAQNRETFNITLYGRTKELTSELKENFIRFSKSLGLPENHIVFPVPIDQCIDG
notes: carries a free Cys at position 36
Take B4: the Kd in [9] was 290 nM; in assay [10], 24.4 nM; in [12] it was 21.5 nM; in assay [13], 16.2 nM; in [14], 24.3 nM. Further, the binding result in assay [11] was “no binding”.
